Key:
Assay in all cases: cell-based or functional assay
hNav1.2 (human) = hNav1.2 (human) (UniProt Q99250)
hNav1.5 (human) = hNav1.5 (human) (UniProt Q14524)
hNav1.6 (human) = hNav1.6 (human) (UniProt Q9UQD0)
hNav1.8 (human) = hNav1.8 (human) (UniProt Q9Y5Y9)
hNav1.1 (human) = hNav1.1 (human) (UniProt P35498)
hNav1.4 (human) = hNav1.4 (human) (UniProt P35499)
hNav1.3 (human) = hNav1.3 (human) (UniProt Q9NY46)
Sequence of hNav1.3 (human) (Q9NY46 whole entry): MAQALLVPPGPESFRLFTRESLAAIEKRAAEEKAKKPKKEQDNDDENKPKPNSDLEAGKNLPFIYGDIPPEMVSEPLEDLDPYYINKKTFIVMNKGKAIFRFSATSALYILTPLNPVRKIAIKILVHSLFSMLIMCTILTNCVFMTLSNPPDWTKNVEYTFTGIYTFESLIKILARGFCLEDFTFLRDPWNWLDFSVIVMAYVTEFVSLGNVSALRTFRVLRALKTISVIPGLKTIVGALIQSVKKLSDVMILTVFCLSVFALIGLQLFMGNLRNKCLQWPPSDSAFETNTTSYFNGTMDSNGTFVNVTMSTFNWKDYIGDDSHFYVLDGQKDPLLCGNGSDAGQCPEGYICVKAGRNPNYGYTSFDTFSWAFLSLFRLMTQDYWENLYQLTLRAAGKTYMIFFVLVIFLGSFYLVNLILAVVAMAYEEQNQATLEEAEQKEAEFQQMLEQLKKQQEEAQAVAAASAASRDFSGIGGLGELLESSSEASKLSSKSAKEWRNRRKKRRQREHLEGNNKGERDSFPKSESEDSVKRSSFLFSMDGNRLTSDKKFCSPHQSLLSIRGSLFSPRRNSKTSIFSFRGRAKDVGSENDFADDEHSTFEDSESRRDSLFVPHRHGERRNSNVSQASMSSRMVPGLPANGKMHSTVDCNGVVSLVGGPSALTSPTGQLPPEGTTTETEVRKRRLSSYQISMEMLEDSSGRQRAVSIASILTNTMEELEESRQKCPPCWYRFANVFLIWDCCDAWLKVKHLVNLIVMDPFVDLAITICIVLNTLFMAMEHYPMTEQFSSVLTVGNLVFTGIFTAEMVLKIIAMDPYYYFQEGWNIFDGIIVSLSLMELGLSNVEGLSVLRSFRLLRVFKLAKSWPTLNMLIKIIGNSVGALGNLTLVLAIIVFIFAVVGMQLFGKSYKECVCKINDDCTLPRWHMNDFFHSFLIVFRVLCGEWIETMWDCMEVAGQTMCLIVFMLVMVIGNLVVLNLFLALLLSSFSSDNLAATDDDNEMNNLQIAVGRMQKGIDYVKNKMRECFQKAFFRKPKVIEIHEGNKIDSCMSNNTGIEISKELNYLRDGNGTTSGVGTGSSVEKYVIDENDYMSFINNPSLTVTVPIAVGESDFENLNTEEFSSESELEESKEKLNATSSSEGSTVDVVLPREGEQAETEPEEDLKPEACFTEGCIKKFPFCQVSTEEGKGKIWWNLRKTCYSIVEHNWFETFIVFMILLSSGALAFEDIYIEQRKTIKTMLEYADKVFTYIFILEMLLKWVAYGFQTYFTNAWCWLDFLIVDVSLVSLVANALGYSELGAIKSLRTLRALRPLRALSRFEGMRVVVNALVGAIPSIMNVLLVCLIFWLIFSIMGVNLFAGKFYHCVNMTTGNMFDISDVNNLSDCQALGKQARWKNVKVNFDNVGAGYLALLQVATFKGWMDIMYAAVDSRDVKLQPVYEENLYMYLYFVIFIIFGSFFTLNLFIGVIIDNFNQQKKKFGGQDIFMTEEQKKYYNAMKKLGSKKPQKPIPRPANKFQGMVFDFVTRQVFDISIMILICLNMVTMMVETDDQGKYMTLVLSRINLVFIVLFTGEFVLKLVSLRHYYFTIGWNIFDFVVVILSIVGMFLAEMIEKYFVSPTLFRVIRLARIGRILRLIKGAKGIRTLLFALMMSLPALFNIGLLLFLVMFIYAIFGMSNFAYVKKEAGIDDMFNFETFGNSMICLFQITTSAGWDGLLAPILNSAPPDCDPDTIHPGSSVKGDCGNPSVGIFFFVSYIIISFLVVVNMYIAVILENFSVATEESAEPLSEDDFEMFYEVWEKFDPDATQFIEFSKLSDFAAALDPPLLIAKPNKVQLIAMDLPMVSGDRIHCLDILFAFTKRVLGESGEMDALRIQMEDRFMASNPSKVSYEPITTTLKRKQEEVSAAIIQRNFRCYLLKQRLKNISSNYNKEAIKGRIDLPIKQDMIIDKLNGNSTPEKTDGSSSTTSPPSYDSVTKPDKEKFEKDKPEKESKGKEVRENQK

Sequence of hNav1.5 (human) (Q14524 whole entry): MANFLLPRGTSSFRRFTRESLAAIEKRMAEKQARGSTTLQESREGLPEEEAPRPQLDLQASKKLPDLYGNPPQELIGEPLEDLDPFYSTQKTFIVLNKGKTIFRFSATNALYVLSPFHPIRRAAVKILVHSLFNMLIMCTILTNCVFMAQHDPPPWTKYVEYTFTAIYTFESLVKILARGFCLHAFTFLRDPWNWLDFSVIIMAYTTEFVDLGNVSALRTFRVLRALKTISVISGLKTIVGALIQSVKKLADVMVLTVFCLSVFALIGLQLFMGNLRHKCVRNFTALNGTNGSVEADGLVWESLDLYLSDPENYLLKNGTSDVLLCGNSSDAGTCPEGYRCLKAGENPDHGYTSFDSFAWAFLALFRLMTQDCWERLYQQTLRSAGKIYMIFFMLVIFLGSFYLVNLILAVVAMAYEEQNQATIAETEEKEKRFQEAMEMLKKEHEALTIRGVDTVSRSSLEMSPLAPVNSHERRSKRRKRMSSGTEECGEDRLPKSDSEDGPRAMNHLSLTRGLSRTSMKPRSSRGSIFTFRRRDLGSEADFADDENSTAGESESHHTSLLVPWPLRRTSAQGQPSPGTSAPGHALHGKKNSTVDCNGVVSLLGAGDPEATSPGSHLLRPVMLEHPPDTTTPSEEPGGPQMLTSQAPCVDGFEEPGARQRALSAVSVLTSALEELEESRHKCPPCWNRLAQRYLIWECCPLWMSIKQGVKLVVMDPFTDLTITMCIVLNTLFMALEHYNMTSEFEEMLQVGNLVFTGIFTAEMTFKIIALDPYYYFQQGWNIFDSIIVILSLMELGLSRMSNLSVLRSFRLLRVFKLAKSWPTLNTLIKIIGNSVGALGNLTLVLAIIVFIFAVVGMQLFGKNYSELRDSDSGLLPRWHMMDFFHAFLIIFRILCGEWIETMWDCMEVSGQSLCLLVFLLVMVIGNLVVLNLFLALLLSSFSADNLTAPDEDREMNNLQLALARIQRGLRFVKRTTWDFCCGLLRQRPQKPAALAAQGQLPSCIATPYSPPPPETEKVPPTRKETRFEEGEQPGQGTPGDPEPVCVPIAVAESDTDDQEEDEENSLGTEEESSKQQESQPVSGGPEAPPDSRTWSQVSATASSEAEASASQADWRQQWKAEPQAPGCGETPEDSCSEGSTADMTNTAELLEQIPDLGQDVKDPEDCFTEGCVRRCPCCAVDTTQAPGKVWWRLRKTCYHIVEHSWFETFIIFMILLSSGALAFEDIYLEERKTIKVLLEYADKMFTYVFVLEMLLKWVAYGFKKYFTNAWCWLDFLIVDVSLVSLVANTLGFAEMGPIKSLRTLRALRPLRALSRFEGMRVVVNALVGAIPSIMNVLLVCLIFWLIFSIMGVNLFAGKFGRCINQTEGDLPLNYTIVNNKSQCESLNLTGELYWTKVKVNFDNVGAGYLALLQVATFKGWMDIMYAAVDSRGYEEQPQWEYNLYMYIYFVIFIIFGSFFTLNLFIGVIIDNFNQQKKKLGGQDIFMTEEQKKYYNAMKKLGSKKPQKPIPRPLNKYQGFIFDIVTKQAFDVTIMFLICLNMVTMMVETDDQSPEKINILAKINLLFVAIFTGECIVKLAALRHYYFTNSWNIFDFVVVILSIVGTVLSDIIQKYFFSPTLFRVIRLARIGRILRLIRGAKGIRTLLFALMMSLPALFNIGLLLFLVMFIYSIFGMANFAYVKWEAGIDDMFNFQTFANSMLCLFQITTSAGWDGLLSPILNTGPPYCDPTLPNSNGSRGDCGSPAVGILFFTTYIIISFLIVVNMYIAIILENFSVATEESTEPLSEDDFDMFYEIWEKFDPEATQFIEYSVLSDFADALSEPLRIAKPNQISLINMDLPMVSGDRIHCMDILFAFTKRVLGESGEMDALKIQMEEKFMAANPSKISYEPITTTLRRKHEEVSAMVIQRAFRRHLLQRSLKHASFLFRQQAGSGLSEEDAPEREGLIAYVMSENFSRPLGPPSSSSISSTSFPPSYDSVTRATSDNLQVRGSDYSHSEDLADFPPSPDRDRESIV

Substance | IC50, membrane potential assay (hNav1.2 (human)) | IC50, membrane potential assay (hNav1.5 (human)) | IC50, membrane potential assay (hNav1.6 (human)) | IC50, membrane potential assay (hNav1.8 (human)) | IC50, membrane potential assay (hNav1.1 (human)) | IC50, membrane potential assay (hNav1.4 (human)) | IC50, membrane potential assay (hNav1.3 (human))
Ac-Pnc1a (peptide) | 5 µM | > 30 µM | 16 µM | > 30 µM | 23 µM | 14 µM | 8 µM
Pnc1a-CONH2 (peptide) | 3 µM | > 30 µM | 20 µM | > 30 µM | 8 µM | 16 µM | 7 µM

Reference: US20190359662A1
